Assay results reported in PMC2686405 (The Journal of Cell Biology, 2009).

Biological target: SNARE complex containing syntaxin-1A(2-253), synaptobrevin-2(29-93), SNAP-25(11-82) and SNAP-25(141-203) (rat | human, UniProt P32851;P63045;P60880)
Assay: SEC

Chain of SNARE complex containing syntaxin-1A(2-253), synaptobrevin-2(29-93), SNAP-25(11-82) and SNAP-25(141-203) (P32851 2-253, chain 1 of 4): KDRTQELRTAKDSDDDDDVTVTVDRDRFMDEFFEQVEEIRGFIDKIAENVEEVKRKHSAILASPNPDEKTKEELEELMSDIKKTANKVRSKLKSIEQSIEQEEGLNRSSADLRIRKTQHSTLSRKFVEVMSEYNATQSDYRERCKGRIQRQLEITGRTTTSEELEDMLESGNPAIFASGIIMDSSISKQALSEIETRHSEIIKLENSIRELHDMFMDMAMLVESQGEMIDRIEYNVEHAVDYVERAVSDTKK
Chain of SNARE complex containing syntaxin-1A(2-253), synaptobrevin-2(29-93), SNAP-25(11-82) and SNAP-25(141-203) (P63045 29-93, chain 2 of 4): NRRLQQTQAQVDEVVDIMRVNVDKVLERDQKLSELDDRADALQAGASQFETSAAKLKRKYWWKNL
Chain of SNARE complex containing syntaxin-1A(2-253), synaptobrevin-2(29-93), SNAP-25(11-82) and SNAP-25(141-203) (P60880 11-82, chain 3 of 4): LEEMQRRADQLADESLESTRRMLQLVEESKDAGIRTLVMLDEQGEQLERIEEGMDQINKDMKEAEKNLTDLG
Chain of SNARE complex containing syntaxin-1A(2-253), synaptobrevin-2(29-93), SNAP-25(11-82) and SNAP-25(141-203) (P60880 141-203, chain 4 of 4): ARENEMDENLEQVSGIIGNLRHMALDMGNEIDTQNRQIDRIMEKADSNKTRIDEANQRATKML

B1: complexin-1(26-83) (domain or fragment)
chain: KDPDAAKKEEERQEALRQAEEERKAKYAKMEAEREVMRQGIRDKYGIKKKEEREAEAQ
B1: binds.
